From article PMC3418257

Target: glutathione-S-transferase coupled human VDR fusion protein (human) (UniProt P11473)
Experiment: pull-down; GSThVDR-Sepharose bead slurry as bait, [35S]-labelled in vitro translated RUNX2 as prey; PPI buffer (20 mM HEPES pH 7.9, 200 mM KCl, 1 mM EDTA, 4 mM MgCl2, 1 mM dithiothreitol, 0.1% Nonidet P-40, 10% glycerol), beads pre-blocked with BSA; with or without 1,25(OH)2D3; SDS-PAGE, autoradiography, densitometry

Chain of UniProt P11473 (P11473 whole entry, the tested form may be a part): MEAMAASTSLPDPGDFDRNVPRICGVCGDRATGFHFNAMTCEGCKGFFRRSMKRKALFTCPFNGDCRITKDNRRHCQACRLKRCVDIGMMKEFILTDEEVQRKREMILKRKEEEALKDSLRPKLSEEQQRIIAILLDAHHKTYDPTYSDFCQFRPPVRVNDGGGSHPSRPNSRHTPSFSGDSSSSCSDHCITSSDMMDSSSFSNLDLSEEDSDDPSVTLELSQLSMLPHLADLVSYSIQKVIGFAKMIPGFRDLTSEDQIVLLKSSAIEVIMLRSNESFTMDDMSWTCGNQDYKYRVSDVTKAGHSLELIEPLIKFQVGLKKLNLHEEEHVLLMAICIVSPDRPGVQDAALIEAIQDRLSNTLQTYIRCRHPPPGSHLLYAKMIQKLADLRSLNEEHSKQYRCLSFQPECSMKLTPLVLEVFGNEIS

“human RUNX2 23Q wild type (natural protein)” showed a percent of label recovered in pull down of 25%.
